# B1: XPA23 light chain H49P (Fab, V domains shown)
# VH: EVQLLESGGGLVQPGGSLRLSCAASGFTFSKYFMFWVRQAPGKGLEWVSVISPSGGMTRYADSVKGRFTISRDNSKNTLYLQMNSLRAEDTAVYYCARVGYGGNSDYWGQGTLVTVSS
# VL: DIQMTQSPSSVSASVGDRLTIICRASQDINRWLAWYQQTPGNAPKLLIPSATSLQSGVPSRFSGSGSGTDFTLTINSLQPEDFATYYCQQADSFPLTFGGGTKVEIK
# B2: XPA23 light chain L96Y (Fab, V domains shown)
# VH: EVQLLESGGGLVQPGGSLRLSCAASGFTFSKYFMFWVRQAPGKGLEWVSVISPSGGMTRYADSVKGRFTISRDNSKNTLYLQMNSLRAEDTAVYYCARVGYGGNSDYWGQGTLVTVSS
# VL: DIQMTQSPSSVSASVGDRLTIICRASQDINRWLAWYQQTPGNAPKLLIHSATSLQSGVPSRFSGSGSGTDFTLTINSLQPEDFATYYCQQADSFPYTFGGGTKVEIK
# B3: XPA23 light chain L96S (Fab, V domains shown)
# VH: EVQLLESGGGLVQPGGSLRLSCAASGFTFSKYFMFWVRQAPGKGLEWVSVISPSGGMTRYADSVKGRFTISRDNSKNTLYLQMNSLRAEDTAVYYCARVGYGGNSDYWGQGTLVTVSS
# VL: DIQMTQSPSSVSASVGDRLTIICRASQDINRWLAWYQQTPGNAPKLLIHSATSLQSGVPSRFSGSGSGTDFTLTINSLQPEDFATYYCQQADSFPSTFGGGTKVEIK
# B4: XPA23 light chain H49R (Fab, V domains shown)
# VH: EVQLLESGGGLVQPGGSLRLSCAASGFTFSKYFMFWVRQAPGKGLEWVSVISPSGGMTRYADSVKGRFTISRDNSKNTLYLQMNSLRAEDTAVYYCARVGYGGNSDYWGQGTLVTVSS
# VL: DIQMTQSPSSVSASVGDRLTIICRASQDINRWLAWYQQTPGNAPKLLIRSATSLQSGVPSRFSGSGSGTDFTLTINSLQPEDFATYYCQQADSFPLTFGGGTKVEIK
# B5: XPA23 light chain L96E (Fab, V domains shown)
# VH: EVQLLESGGGLVQPGGSLRLSCAASGFTFSKYFMFWVRQAPGKGLEWVSVISPSGGMTRYADSVKGRFTISRDNSKNTLYLQMNSLRAEDTAVYYCARVGYGGNSDYWGQGTLVTVSS
# VL: DIQMTQSPSSVSASVGDRLTIICRASQDINRWLAWYQQTPGNAPKLLIHSATSLQSGVPSRFSGSGSGTDFTLTINSLQPEDFATYYCQQADSFPETFGGGTKVEIK
# B6: XPA23 light chain H49T (Fab, V domains shown)
# VH: EVQLLESGGGLVQPGGSLRLSCAASGFTFSKYFMFWVRQAPGKGLEWVSVISPSGGMTRYADSVKGRFTISRDNSKNTLYLQMNSLRAEDTAVYYCARVGYGGNSDYWGQGTLVTVSS
# VL: DIQMTQSPSSVSASVGDRLTIICRASQDINRWLAWYQQTPGNAPKLLITSATSLQSGVPSRFSGSGSGTDFTLTINSLQPEDFATYYCQQADSFPLTFGGGTKVEIK
# B7: XPA23 light chain L96K (Fab, V domains shown)
# VH: EVQLLESGGGLVQPGGSLRLSCAASGFTFSKYFMFWVRQAPGKGLEWVSVISPSGGMTRYADSVKGRFTISRDNSKNTLYLQMNSLRAEDTAVYYCARVGYGGNSDYWGQGTLVTVSS
# VL: DIQMTQSPSSVSASVGDRLTIICRASQDINRWLAWYQQTPGNAPKLLIHSATSLQSGVPSRFSGSGSGTDFTLTINSLQPEDFATYYCQQADSFPKTFGGGTKVEIK
# B8: XPA23 light chain H49S (Fab, V domains shown)
# VH: EVQLLESGGGLVQPGGSLRLSCAASGFTFSKYFMFWVRQAPGKGLEWVSVISPSGGMTRYADSVKGRFTISRDNSKNTLYLQMNSLRAEDTAVYYCARVGYGGNSDYWGQGTLVTVSS
# VL: DIQMTQSPSSVSASVGDRLTIICRASQDINRWLAWYQQTPGNAPKLLISSATSLQSGVPSRFSGSGSGTDFTLTINSLQPEDFATYYCQQADSFPLTFGGGTKVEIK
# B9: XPA23 light chain L96N (Fab, V domains shown)
# VH: EVQLLESGGGLVQPGGSLRLSCAASGFTFSKYFMFWVRQAPGKGLEWVSVISPSGGMTRYADSVKGRFTISRDNSKNTLYLQMNSLRAEDTAVYYCARVGYGGNSDYWGQGTLVTVSS
# VL: DIQMTQSPSSVSASVGDRLTIICRASQDINRWLAWYQQTPGNAPKLLIHSATSLQSGVPSRFSGSGSGTDFTLTINSLQPEDFATYYCQQADSFPNTFGGGTKVEIK
# B10: XPA23 light chain L96W (Fab, V domains shown)
# VH: EVQLLESGGGLVQPGGSLRLSCAASGFTFSKYFMFWVRQAPGKGLEWVSVISPSGGMTRYADSVKGRFTISRDNSKNTLYLQMNSLRAEDTAVYYCARVGYGGNSDYWGQGTLVTVSS
# VL: DIQMTQSPSSVSASVGDRLTIICRASQDINRWLAWYQQTPGNAPKLLIHSATSLQSGVPSRFSGSGSGTDFTLTINSLQPEDFATYYCQQADSFPWTFGGGTKVEIK
# B11: XPA23 light chain L96R (Fab, V domains shown)
# VH: EVQLLESGGGLVQPGGSLRLSCAASGFTFSKYFMFWVRQAPGKGLEWVSVISPSGGMTRYADSVKGRFTISRDNSKNTLYLQMNSLRAEDTAVYYCARVGYGGNSDYWGQGTLVTVSS
# VL: DIQMTQSPSSVSASVGDRLTIICRASQDINRWLAWYQQTPGNAPKLLIHSATSLQSGVPSRFSGSGSGTDFTLTINSLQPEDFATYYCQQADSFPRTFGGGTKVEIK
# B12: XPA23 light chain L96H (Fab, V domains shown)
# VH: EVQLLESGGGLVQPGGSLRLSCAASGFTFSKYFMFWVRQAPGKGLEWVSVISPSGGMTRYADSVKGRFTISRDNSKNTLYLQMNSLRAEDTAVYYCARVGYGGNSDYWGQGTLVTVSS
# VL: DIQMTQSPSSVSASVGDRLTIICRASQDINRWLAWYQQTPGNAPKLLIHSATSLQSGVPSRFSGSGSGTDFTLTINSLQPEDFATYYCQQADSFPHTFGGGTKVEIK
# B13: XPA23 light chain H49W (Fab, V domains shown)
# VH: EVQLLESGGGLVQPGGSLRLSCAASGFTFSKYFMFWVRQAPGKGLEWVSVISPSGGMTRYADSVKGRFTISRDNSKNTLYLQMNSLRAEDTAVYYCARVGYGGNSDYWGQGTLVTVSS
# VL: DIQMTQSPSSVSASVGDRLTIICRASQDINRWLAWYQQTPGNAPKLLIWSATSLQSGVPSRFSGSGSGTDFTLTINSLQPEDFATYYCQQADSFPLTFGGGTKVEIK
# B14: XPA23 light chain H49V (Fab, V domains shown)
# VH: EVQLLESGGGLVQPGGSLRLSCAASGFTFSKYFMFWVRQAPGKGLEWVSVISPSGGMTRYADSVKGRFTISRDNSKNTLYLQMNSLRAEDTAVYYCARVGYGGNSDYWGQGTLVTVSS
# VL: DIQMTQSPSSVSASVGDRLTIICRASQDINRWLAWYQQTPGNAPKLLIVSATSLQSGVPSRFSGSGSGTDFTLTINSLQPEDFATYYCQQADSFPLTFGGGTKVEIK
# B15: XPA23 light chain N30D (Fab, V domains shown)
# VH: EVQLLESGGGLVQPGGSLRLSCAASGFTFSKYFMFWVRQAPGKGLEWVSVISPSGGMTRYADSVKGRFTISRDNSKNTLYLQMNSLRAEDTAVYYCARVGYGGNSDYWGQGTLVTVSS
# VL: DIQMTQSPSSVSASVGDRLTIICRASQDIDRWLAWYQQTPGNAPKLLIHSATSLQSGVPSRFSGSGSGTDFTLTINSLQPEDFATYYCQQADSFPLTFGGGTKVEIK
# B16: XPA23 light chain L96Q (Fab, V domains shown)
# VH: EVQLLESGGGLVQPGGSLRLSCAASGFTFSKYFMFWVRQAPGKGLEWVSVISPSGGMTRYADSVKGRFTISRDNSKNTLYLQMNSLRAEDTAVYYCARVGYGGNSDYWGQGTLVTVSS
# VL: DIQMTQSPSSVSASVGDRLTIICRASQDINRWLAWYQQTPGNAPKLLIHSATSLQSGVPSRFSGSGSGTDFTLTINSLQPEDFATYYCQQADSFPQTFGGGTKVEIK
# B17: XPA23 light chain L96D (Fab, V domains shown)
# VH: EVQLLESGGGLVQPGGSLRLSCAASGFTFSKYFMFWVRQAPGKGLEWVSVISPSGGMTRYADSVKGRFTISRDNSKNTLYLQMNSLRAEDTAVYYCARVGYGGNSDYWGQGTLVTVSS
# VL: DIQMTQSPSSVSASVGDRLTIICRASQDINRWLAWYQQTPGNAPKLLIHSATSLQSGVPSRFSGSGSGTDFTLTINSLQPEDFATYYCQQADSFPDTFGGGTKVEIK
# B18: XPA23 light chain N30A (Fab, V domains shown)
# VH: EVQLLESGGGLVQPGGSLRLSCAASGFTFSKYFMFWVRQAPGKGLEWVSVISPSGGMTRYADSVKGRFTISRDNSKNTLYLQMNSLRAEDTAVYYCARVGYGGNSDYWGQGTLVTVSS
# VL: DIQMTQSPSSVSASVGDRLTIICRASQDIARWLAWYQQTPGNAPKLLIHSATSLQSGVPSRFSGSGSGTDFTLTINSLQPEDFATYYCQQADSFPLTFGGGTKVEIK
# B19: XPA23 light chain L96F (Fab, V domains shown)
# VH: EVQLLESGGGLVQPGGSLRLSCAASGFTFSKYFMFWVRQAPGKGLEWVSVISPSGGMTRYADSVKGRFTISRDNSKNTLYLQMNSLRAEDTAVYYCARVGYGGNSDYWGQGTLVTVSS
# VL: DIQMTQSPSSVSASVGDRLTIICRASQDINRWLAWYQQTPGNAPKLLIHSATSLQSGVPSRFSGSGSGTDFTLTINSLQPEDFATYYCQQADSFPFTFGGGTKVEIK
# B20: XPA23 light chain N30E (Fab, V domains shown)
# VH: EVQLLESGGGLVQPGGSLRLSCAASGFTFSKYFMFWVRQAPGKGLEWVSVISPSGGMTRYADSVKGRFTISRDNSKNTLYLQMNSLRAEDTAVYYCARVGYGGNSDYWGQGTLVTVSS
# VL: DIQMTQSPSSVSASVGDRLTIICRASQDIERWLAWYQQTPGNAPKLLIHSATSLQSGVPSRFSGSGSGTDFTLTINSLQPEDFATYYCQQADSFPLTFGGGTKVEIK
# B21: XPA23 light chain H49Y (Fab, V domains shown)
# VH: EVQLLESGGGLVQPGGSLRLSCAASGFTFSKYFMFWVRQAPGKGLEWVSVISPSGGMTRYADSVKGRFTISRDNSKNTLYLQMNSLRAEDTAVYYCARVGYGGNSDYWGQGTLVTVSS
# VL: DIQMTQSPSSVSASVGDRLTIICRASQDINRWLAWYQQTPGNAPKLLIYSATSLQSGVPSRFSGSGSGTDFTLTINSLQPEDFATYYCQQADSFPLTFGGGTKVEIK
# B22: XPA23 light chain H49Q (Fab, V domains shown)
# VH: EVQLLESGGGLVQPGGSLRLSCAASGFTFSKYFMFWVRQAPGKGLEWVSVISPSGGMTRYADSVKGRFTISRDNSKNTLYLQMNSLRAEDTAVYYCARVGYGGNSDYWGQGTLVTVSS
# VL: DIQMTQSPSSVSASVGDRLTIICRASQDINRWLAWYQQTPGNAPKLLIQSATSLQSGVPSRFSGSGSGTDFTLTINSLQPEDFATYYCQQADSFPLTFGGGTKVEIK
# Target: T1, IL-1β (UniProt P01584 117-269)
# T1 construct: Antigen immobilised on the Biacore chip
# Assay: Biacore, periplasmic extract
Binder,fold difference in affinity vs original,binding result
B1,0.86 fold,–
B2,–,no binding
B3,0.23 fold,–
B4,0.21 fold,–
B5,–,no binding
B6,–,no binding
B7,–,no binding
B8,0.14 fold,–
B9,0.06 fold,–
B10,4.49 fold,–
B11,–,no binding
B12,0.07 fold,–
B13,0.21 fold,–
B14,–,no binding
B15,0.81 fold,–
B16,0.21 fold,–
B17,–,no binding
B18,0.61 fold,–
B19,0.28 fold,–
B20,0.64 fold,–
B21,0.52 fold,–
B22,–,no binding
